# According to publication PMC6420597, “The MurG glycosyltransferase provides an oligomeric scaffold for the cytoplasmic steps of peptidoglycan biosynthesis in the human pathogen Bordetella pertussis” (Scientific Reports, 2019):
# B1: MurG glycosyltransferase from Bordetella pertussis, N-terminal Strep-tagged (enzyme, UniProt Q7VUQ3 1-357, looked up)
# chain: MSAPTILIMAGGTGGHIMPGLAVAEVLRERGWRVLWLGNPDKMEGRLVPPRGIELVPLRFQGVRGRGAAALLKLPFLLARACAQAWRRLADIRPDVVLGMGGYVAFPGGVMAALRRTPLVVHEQNAVAGTANRWLARLARRVLSGFPGVLPRGEALGNPVRADLCALPEPAERYAGRSGALRVLVVGGSLGAHALNTTVPQALALLPEQARPQVVHQAGEQHLPALQQAYAQAGVQADCRAFIDDMADAMAQADLLICRAGAMTVSEVAAAGVAALFVPFPHAIDDHQTANARFLSDAQAAWLQPQASLTPQWLAQWLGQRTRQELQAVAGRARTHALPRAAAHIADVCEQAARRAS
# notes: MurG, Bordetella pertussis strain ATCC 9797/DSM No 5571; printed as a 357-residue protein; the murG gene was cloned into a modified pET30b; The Strep-tag is TEV-cleavable, but no cleavage is described; It is not clear whether the 357 residues include the tag; The oligomeric state depends on detergent: dimer in DDM/DM, tetramers and higher without; The discussion gives a mass of 50 kDa; also …
# What was measured:
# [1] = biological target: MurE-MurF bifunctional fusion protein from Bordetella pertussis, His-tagged (Bordetella pertussis (strain ATCC 9797/DSM No 5571))
# [2] = biological target: MurE-MurF bifunctional fusion protein from Bordetella pertussis, His-tagged (Bordetella pertussis (strain ATCC 9797/DSM No 5571)); assay: SEC-MALS; larger SEC form (dimer pool) of MurE-MurF; 25 mM HEPES pH 7.5, 300 mM NaCl, 10 mM MgCl2, 5% glycerol; room temperature
# [3] = biological target: MurE-MurF bifunctional fusion protein from Bordetella pertussis, His-tagged (Bordetella pertussis (strain ATCC 9797/DSM No 5571)); assay: AUC; sedimentation velocity, dimer pool of MurE-MurF at 40, 10 and 2.5 μM, 42,000 rpm, 20 °C
# [4] = biological target: FITC-labelled MurE-MurF fusion protein from Bordetella pertussis (Bordetella pertussis (strain ATCC 9797/DSM No 5571)); assay: MST; FITC-labelled MurE-MurF at a fixed concentration, MurG purified in detergent titrated; 25 mM HEPES pH 7.5, 150 mM NaCl, 10 mM MgCl2, 5% glycerol, 0.17% w/v DM; 22 °C; triplicate
# [5] = biological target: the molecule itself; assay: AUC; sedimentation velocity, MurG 2 mg/ml in buffer with DM (1.2 x CMC), 42,000 rpm, 20 °C
# [6] = biological target: FITC-labelled MurE-MurF fusion protein from Bordetella pertussis (Bordetella pertussis (strain ATCC 9797/DSM No 5571)); assay: MST; FITC-labelled MurE-MurF at a fixed concentration, oligomeric MurG (purified without detergent) titrated from 1 nM to 37 μM; 25 mM HEPES pH 7.5, 150 mM NaCl, 10 mM MgCl2, 5% glycerol, no detergent; apparent KD, no clear plateau
molecule,measurement,setting,value
"MurE-MurF bifunctional fusion protein from Bordetella pertussis, His-tagged (enzyme)",specific activity of the MurF-catalysed reaction (D-Ala-D-Ala-adding) of the dimeric form of MurE-MurF; the monomeric form gave 14.1 µmol/min/mg,[1],7.5 µmol/min/mg
same,stoichiometry N,[2],2
same,stoichiometry N,[3],2
B1,Kd,[4],570 nM
same,stoichiometry N,[5],2
same,Kd,[6],970 nM
